{"source": "patent US20150037356A1", "about": "(AstraZeneca / MedImmune, published 2015)", "key": {"[1]": {"molecular_target": "T1, CD33 on U937 cells (UniProt P20138 18-364, limits assumed)", "T1 construct": "whole, on cells", "T1 sequence (P20138 18-364 limits assumed)": "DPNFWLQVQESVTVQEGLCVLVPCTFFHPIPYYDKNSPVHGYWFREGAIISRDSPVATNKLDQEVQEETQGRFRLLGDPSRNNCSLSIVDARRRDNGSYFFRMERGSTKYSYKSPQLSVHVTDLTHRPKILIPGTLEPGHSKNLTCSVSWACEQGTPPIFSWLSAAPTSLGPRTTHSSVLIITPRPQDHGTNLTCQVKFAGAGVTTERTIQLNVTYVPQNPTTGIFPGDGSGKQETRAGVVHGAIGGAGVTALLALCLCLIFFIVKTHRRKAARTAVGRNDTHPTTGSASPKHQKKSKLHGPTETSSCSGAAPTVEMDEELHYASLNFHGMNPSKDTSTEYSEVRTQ", "experiment": "FACS on U937 cells"}, "[2]": {"molecular_target": "T2, Siglec-5 on U937 cells (UniProt O15389 17-551, limits assumed)", "T2 construct": "whole, on cells", "T2 sequence (looked up)": "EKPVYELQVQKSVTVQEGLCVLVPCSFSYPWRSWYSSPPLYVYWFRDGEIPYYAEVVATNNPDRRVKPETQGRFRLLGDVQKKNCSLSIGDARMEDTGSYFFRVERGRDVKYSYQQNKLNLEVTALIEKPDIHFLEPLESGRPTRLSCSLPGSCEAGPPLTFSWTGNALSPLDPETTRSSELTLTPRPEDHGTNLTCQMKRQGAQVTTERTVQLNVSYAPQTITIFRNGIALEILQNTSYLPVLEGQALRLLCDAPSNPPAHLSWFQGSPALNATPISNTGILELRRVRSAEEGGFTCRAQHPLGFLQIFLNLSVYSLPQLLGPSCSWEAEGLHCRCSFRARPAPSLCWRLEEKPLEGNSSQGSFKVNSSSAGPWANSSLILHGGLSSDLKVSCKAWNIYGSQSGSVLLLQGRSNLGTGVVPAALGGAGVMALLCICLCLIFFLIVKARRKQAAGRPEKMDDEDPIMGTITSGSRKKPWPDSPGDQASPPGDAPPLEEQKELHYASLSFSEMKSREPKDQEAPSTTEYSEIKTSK", "experiment": "FACS on U937 cells"}, "[3]": {"molecular_target": "T3, Siglec-9 on U937 cells (UniProt Q9Y336 18-463, limits assumed)", "T3 construct": "whole, on cells", "T3 sequence (Q9Y336 18-463 limits assumed)": "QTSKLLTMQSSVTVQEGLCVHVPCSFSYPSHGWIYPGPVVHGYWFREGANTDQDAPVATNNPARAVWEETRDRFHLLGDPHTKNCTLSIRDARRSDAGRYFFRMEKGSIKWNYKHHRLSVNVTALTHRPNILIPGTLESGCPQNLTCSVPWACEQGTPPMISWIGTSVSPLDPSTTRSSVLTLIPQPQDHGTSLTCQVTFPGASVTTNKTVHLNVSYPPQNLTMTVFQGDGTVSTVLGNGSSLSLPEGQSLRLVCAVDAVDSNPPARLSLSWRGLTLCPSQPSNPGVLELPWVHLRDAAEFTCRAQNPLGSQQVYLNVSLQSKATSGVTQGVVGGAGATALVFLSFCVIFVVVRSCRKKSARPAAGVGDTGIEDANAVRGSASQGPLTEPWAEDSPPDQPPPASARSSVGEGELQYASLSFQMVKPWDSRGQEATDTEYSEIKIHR", "experiment": "FACS on U937 cells"}, "[4]": {"molecular_target": "T4, endogenous Siglec-15 on leukaemic cell lines (human, UniProt Q6ZMC9 20-328)", "T4 sequence (looked up)": "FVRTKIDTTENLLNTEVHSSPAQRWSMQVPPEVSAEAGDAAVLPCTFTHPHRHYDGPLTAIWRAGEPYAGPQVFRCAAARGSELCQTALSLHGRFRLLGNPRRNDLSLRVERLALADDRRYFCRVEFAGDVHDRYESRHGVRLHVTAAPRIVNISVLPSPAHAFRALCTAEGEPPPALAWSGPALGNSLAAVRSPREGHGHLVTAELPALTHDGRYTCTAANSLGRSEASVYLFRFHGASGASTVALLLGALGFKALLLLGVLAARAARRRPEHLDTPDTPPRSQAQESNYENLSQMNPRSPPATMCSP", "experiment": "cell-based or functional assay"}}}
{"binder": "A9E8 monoclonal antibody (mouse IgG1 format) (antibody, V domains shown, VH and VL from the phage scFv were cloned into a mouse IgG1 backbone and expressed as complete mouse IgG1; also called A9E8 antibody) VH: QLQLQESGPGLVKPSETLSLTCAVSGASISNWWSWVRQPPGKGLEWIGEVHHSGVTTYKPSLKSRVTISVDNSKNQLSLKLTSVTAADTAVYYCAREFADDAFDIWGRGTMVTVSS VL: SSELTQDPAVSVALGQTVRITCRGDSLRKYYASWYQQKPRQAPQLVIYHKNNRASGIPDRFSGSISGNTASLTITGAQAEDEAAYFCNSRDTSGNYLVFGGGTKVTVLG", "values": [{"measurement": "binding result", "setting": "[1]", "result": "no binding"}, {"measurement": "binding result", "setting": "[2]", "result": "no binding"}, {"measurement": "binding result", "setting": "[3]", "result": "no binding"}, {"measurement": "half-life of endocytosis", "setting": "[4]", "result": 174, "unit": "s"}]}
